Data from patent US20250161472A1 (BIOATLA, published 2025).
Changes are numbered by the printed parent chain.

B1: LC-G049C (antibody, V domains shown)
VH: EVQLQQSGPELVKPGASVKISCKTSGYTFTEYTMHWMKQSHRKSLEWIGGINTNNGGTGYNQKFKGKATLTVDKSSSTAYMELRSLTSEDSAVYFCARGSLYSYGNSYFDYWGQGTLVTVSS
VL: QIVLTQSPAIMSASPGEKVTITCSATSSVSYMHWFQQKPGTSPKLWIYCTSNLASGVPARFSGSGSGTSYSLTISRMEAEDAATYYCQQRSSYPFTFGQGTKVEIK
notes: CPE single point mutant of parent VL 48.6-LC-WT
B2: LC-H033L (antibody, V domains shown)
VH: B1 VH
VL: B1 VL with H33L, C49G
notes: as for B1
B3: LC-S030D (antibody, V domains shown)
VH: B1 VH
VL: B1 VL with S30D, C49G
notes: as for B1
B4: LC-F097E (antibody, V domains shown)
VH: B1 VH
VL: B1 VL with C49G, F97E
notes: as for B1
B5: LC-S092V (antibody, V domains shown)
VH: B1 VH
VL: B1 VL with C49G, S92V
notes: as for B1
B6: LC-Q089E (antibody, V domains shown)
VH: B1 VH
VL: B1 VL with C49G, Q89E
notes: as for B1
B7: LC-G049P (antibody, V domains shown)
VH: B1 VH
VL: B1 VL with C49P
notes: as for B1
B8: LC-H033G (antibody, V domains shown)
VH: B1 VH
VL: B1 VL with H33G, C49G
notes: as for B1
B9: LC-S092D (antibody, V domains shown)
VH: B1 VH
VL: B1 VL with C49G, S92D
notes: as for B1
B10: LC-R090H (antibody, V domains shown)
VH: B1 VH
VL: B1 VL with C49G, R90H
notes: as for B1
B11: LC-G049H (antibody, V domains shown)
VH: B1 VH
VL: B1 VL with C49H
notes: as for B1
B12: HC-A097I (antibody, V domains shown)
VH: B1 VH with A97I
VL: B1 VL with C49G
notes: CPE single point mutant of parent VH 48.6-HC-WT
B13: HC-G050S (antibody, V domains shown)
VH: B1 VH with G50S
VL: B1 VL with C49G
notes: as for B12
B14: HC-L101F (antibody, V domains shown)
VH: B1 VH with L101F
VL: B1 VL with C49G
notes: as for B12
B15: HC-Y032D (antibody, V domains shown)
VH: B1 VH with Y32D
VL: B1 VL with C49G
notes: as for B12
B16: HC-N052V (antibody, V domains shown)
VH: B1 VH with N52V
VL: B1 VL with C49G
notes: as for B12
B17: HC-T053E (antibody, V domains shown)
VH: B1 VH with T53E
VL: B1 VL with C49G
notes: as for B12
B18: HC-G105D (antibody, V domains shown)
VH: B1 VH with G105D
VL: B1 VL with C49G
notes: as for B12
B19: HC-F029E (antibody, V domains shown)
VH: B1 VH with F29E
VL: B1 VL with C49G
notes: as for B12
B20: HC-N052L (antibody, V domains shown)
VH: B1 VH with N52L
VL: B1 VL with C49G
notes: as for B12
B21: HC-R098H (antibody, V domains shown)
VH: B1 VH with R98H
VL: B1 VL with C49G
notes: as for B12
B22: HC-N052C (antibody, V domains shown)
VH: B1 VH with N52C
VL: B1 VL with C49G
notes: as for B12
B23: HC-T053D (antibody, V domains shown)
VH: B1 VH with T53D
VL: B1 VL with C49G
notes: as for B12
B24: HC-I051E (antibody, V domains shown)
VH: B1 VH with I51E
VL: B1 VL with C49G
notes: as for B12
B25: HC-D110L (antibody, V domains shown)
VH: B1 VH with D110L
VL: B1 VL with C49G
notes: as for B12
B26: HC-Y111C (antibody, V domains shown)
VH: B1 VH with Y111C
VL: B1 VL with C49G
notes: as for B12
B27: HC-M034D (antibody, V domains shown)
VH: B1 VH with M34D
VL: B1 VL with C49G
notes: as for B12
B28: HC-W112L (antibody, V domains shown)
VH: B1 VH with W112L
VL: B1 VL with C49G
notes: as for B12
B29: HC-S103G (antibody, V domains shown)
VH: B1 VH with S103G
VL: B1 VL with C49G
notes: as for B12
B30: HC-Y111T (antibody, V domains shown)
VH: B1 VH with Y111T
VL: B1 VL with C49G
notes: as for B12
B31: HC-A097M (antibody, V domains shown)
VH: B1 VH with A97M
VL: B1 VL with C49G
notes: as for B12
B32: HC-A097T (antibody, V domains shown)
VH: B1 VH with A97T
VL: B1 VL with C49G
notes: as for B12
B33: HC-T033C (antibody, V domains shown)
VH: B1 VH with T33C
VL: B1 VL with C49G
notes: as for B12
B34: HC-M034Y (antibody, V domains shown)
VH: B1 VH with M34Y
VL: B1 VL with C49G
notes: as for B12
B35: HC-M034E (antibody, V domains shown)
VH: B1 VH with M34E
VL: B1 VL with C49G
notes: as for B12
B36: HC-G099E (antibody, V domains shown)
VH: B1 VH with G99E
VL: B1 VL with C49G
notes: as for B12
B37: HC-A097S (antibody, V domains shown)
VH: B1 VH with A97S
VL: B1 VL with C49G
notes: as for B12
B38: HC-R098Q (antibody, V domains shown)
VH: B1 VH with R98Q
VL: B1 VL with C49G
notes: as for B12

Target: T1, human ROR2 (receptor tyrosine kinase-like orphan receptor 2) (human, UniProt Q01974 34-403, limits assumed)
T1 construct: Antigen of the ELISA, SPR and pH titration assays; also called hROR2
Assay: affinity ELISA on human ROR2, pH 6.0
Design: unit not given here

T1 sequence (Q01974 34-403 limits assumed): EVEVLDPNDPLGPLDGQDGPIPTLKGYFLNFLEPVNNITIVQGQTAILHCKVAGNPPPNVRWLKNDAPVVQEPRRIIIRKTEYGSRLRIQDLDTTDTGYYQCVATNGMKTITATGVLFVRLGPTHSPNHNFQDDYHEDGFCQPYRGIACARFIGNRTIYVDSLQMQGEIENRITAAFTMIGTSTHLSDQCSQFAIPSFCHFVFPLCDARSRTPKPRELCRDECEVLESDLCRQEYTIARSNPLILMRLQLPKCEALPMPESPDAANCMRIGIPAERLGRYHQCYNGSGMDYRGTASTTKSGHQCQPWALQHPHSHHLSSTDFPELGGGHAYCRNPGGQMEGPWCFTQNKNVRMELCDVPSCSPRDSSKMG

| Affinity ELISA, pH 6.0 | Binder |
| --- | --- |
| 0.468 | B1 |
| 0.69 | B2 |
| 0.733 | B3 |
| 0.489 | B4 |
| 1.23 | B5 |
| 0.438 | B6 |
| 0.66 | B7 |
| 1.1 | B8 |
| 1.13 | B9 |
| 0.56 | B10 |
| 1.87 | B11 |

Target: T1, human ROR2 (receptor tyrosine …)
Assay: affinity ELISA on human ROR2, pH 7.4
Design: unit not given here

| Affinity ELISA, pH 7.4 | Binder |
| --- | --- |
| 1.73 | B12 |
| 0.318 | B13 |
| 1.41 | B14 |
| 0.51 | B15 |
| 0.34 | B16 |
| 0.157 | B17 |
| 0.379 | B18 |
| 0.742 | B19 |
| 0.433 | B20 |
| 0.353 | B21 |
| 0.431 | B22 |
| 0.222 | B23 |
| 0.1 | B24 |
| 1.4 | B25 |
| 0.793 | B26 |
| 0.211 | B27 |
| 1.7 | B28 |
| 0.655 | B29 |
| 1.4 | B30 |
| 1.7 | B31 |
| 1.69 | B32 |
| 0.232 | B33 |
| 0.391 | B34 |
| 0.185 | B35 |
| 0.421 | B36 |
| 1.69 | B37 |
| 0.276 | B38 |

Target: T1, human ROR2 (receptor tyrosine …)
Assay: affinity ELISA on human ROR2, pH 6.0
Design: unit not given here
Remark: another data set of the same source

| Affinity ELISA, pH 6.0 | Binder |
| --- | --- |
| 1.89 | B12 |
| 0.828 | B13 |
| 1.46 | B14 |
| 1.47 | B15 |
| 0.87 | B16 |
| 0.54 | B17 |
| 0.509 | B18 |
| 1.34 | B19 |
| 0.911 | B20 |
| 0.928 | B21 |
| 0.995 | B22 |
| 1.11 | B23 |
| 1.04 | B24 |
| 1.68 | B25 |
| 1.08 | B26 |
| 1.24 | B27 |
| 1.75 | B28 |
| 0.794 | B29 |
| 1.86 | B30 |
| 1.98 | B31 |
| 1.83 | B32 |
| 0.626 | B33 |
| 0.903 | B34 |
| 1.17 | B35 |
| 0.616 | B36 |
| 1.67 | B37 |
| 0.799 | B38 |

Target: T1, human ROR2 (receptor tyrosine …)
Assay: affinity ELISA on human ROR2, pH 7.4
Design: unit not given here
Remark: another data set of the same source

| Affinity ELISA, pH 7.4 | Binder |
| --- | --- |
| 0.133 | B1 |
| 0.332 | B2 |
| 0.252 | B3 |
| 0.215 | B4 |
| 1.18 | B5 |
| 0.251 | B6 |
| 0.268 | B7 |
| 0.536 | B8 |
| 1.12 | B9 |
| 0.256 | B10 |
| 0.118 | B11 |
